# Data from patent US20180186896A1.
# Target: membrane IgE C2C4 expressed on Ramos cells (in the presence of Ig-alpha and Ig-beta) (human) (UniProt P01854)
# Assay: flow cytometry, MFI on C2C4-expressing Ramos cells divided by MFI on non-induced cells
row,Substance,MFI ratio
1,"Negative controls (right sample block, starting with no primary AB)",1
2,positive control mAB anti-IgE BSW17 (antibody),> 5
3,positive control mAB anti-IgE Le27 (antibody),> 5
